B1: Chorion-specific transcription factor GCMb (Homo sapiens), O75603 (parent)
chain: MPAAAVQEAVGVCSYGMQLSWDINDPQMPQELALFDQFREWPDGYVRFIYSSDEKKAQRHLSGWAMRNTNNHNGHILKKSCLGVVVCTQACTLPDGSRLQLRPAICDKARLKQQKKACPNCHSALELIPCRGHSGYPVTNFWRLDGNAIFFQAKGVHDHPRPESKSETEARRSAIKRQMASFYQPQKKRIRESEAEENQDSSGHFSNIPPLENPEDFDIVTETSFPIPGQPCPSFPKSDVYKATCDLATFQGDKMPPFQKYSSPRIYLPRPPCSYELANPGYTNSSPYPTLYKDSTSIPNDTDWVHLNTLQCNVNSYSSYERSFDFTNKQHGWKPALGKPSLVERTNHGQFQAMATRPYYNPELPCRYLTTPPPGAPALQTVITTTTKVSYQAYQPPAMKYSDSVREVKSLSSCNYAPEDTGMSVYPEPWGPPVTVTRAASPSGPPPMKIAGDCRAIRPTVAIPHEPVSSRTDEAETWDVCLSGLGSAVSYSDRVGPFFTYNNEDF
partner: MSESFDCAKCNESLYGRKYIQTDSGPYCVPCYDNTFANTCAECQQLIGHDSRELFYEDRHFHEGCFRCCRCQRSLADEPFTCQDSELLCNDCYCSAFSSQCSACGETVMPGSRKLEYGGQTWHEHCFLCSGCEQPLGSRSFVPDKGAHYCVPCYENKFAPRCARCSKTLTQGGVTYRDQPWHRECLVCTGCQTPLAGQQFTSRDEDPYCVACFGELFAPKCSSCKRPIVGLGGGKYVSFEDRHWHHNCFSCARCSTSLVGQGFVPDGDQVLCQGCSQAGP
B2: E3 ubiquitin-protein ligase Midline-1 (Homo sapiens), O15344 (parent)
chain: METLESELTCPICLELFEDPLLLPCAHSLCFNCAHRILVSHCATNESVESITAFQCPTCRHVITLSQRGLDGLKRNVTLQNIIDRFQKASVSGPNSPSETRRERAFDANTMTSAEKVLCQFCDQDPAQDAVKTCVTCEVSYCDECLKATHPNKKPFTGHRLIEPIPDSHIRGLMCLEHEDEKVNMYCVTDDQLICALCKLVGRHRDHQVAALSERYDKLKQNLESNLTNLIKRNTELETLLAKLIQTCQHVEVNASRQEAKLTEECDLLIEIIQQRRQIIGTKIKEGKVMRLRKLAQQIANCKQCIERSASLISQAEHSLKENDHARFLQTAKNITERVSMATASSQVLIPEINLNDTFDTFALDFSREKKLLECLDYLTAPNPPTIREELCTASYDTITVHWTSDDEFSVVSYELQYTIFTGQANVVSLCNSADSWMIVPNIKQNHYTVHGLQSGTKYIFMVKAINQAGSRSSEPGKLKTNSQPFKLDPKSAHRKLKVSHDNLTVERDESSSKKSHTPERFTSQGSYGVAGNVFIDSGRHYWEVVISGSTWYAIGLAYKSAPKHEWIGKNSASWALCRCNNNWVVRHNSKEIPIEPAPHLRRVGILLDYDNGSIAFYDALNSIHLYTFDVAFAQPVCPTFTVWNKCLTIITGLPIPDHLDCTEQLP
partner: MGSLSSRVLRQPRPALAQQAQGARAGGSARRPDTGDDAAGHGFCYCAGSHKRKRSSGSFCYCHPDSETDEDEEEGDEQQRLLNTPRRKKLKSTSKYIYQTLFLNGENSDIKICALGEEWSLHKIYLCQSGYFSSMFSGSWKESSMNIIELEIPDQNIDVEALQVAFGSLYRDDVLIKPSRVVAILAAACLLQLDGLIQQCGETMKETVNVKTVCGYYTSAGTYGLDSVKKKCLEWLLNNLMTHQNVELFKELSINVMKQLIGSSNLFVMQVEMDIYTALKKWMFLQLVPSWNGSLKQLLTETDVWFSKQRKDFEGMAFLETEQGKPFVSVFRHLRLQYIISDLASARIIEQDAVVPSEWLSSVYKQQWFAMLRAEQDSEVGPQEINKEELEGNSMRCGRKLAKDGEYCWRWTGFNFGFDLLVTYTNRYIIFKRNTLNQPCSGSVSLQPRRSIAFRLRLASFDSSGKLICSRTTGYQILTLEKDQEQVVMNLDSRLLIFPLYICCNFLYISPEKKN
B3: DNA excision repair protein ERCC-1 (Homo sapiens), P07992-3 (parent)
chain: MDPGKDKEGVPQPSGPPARKKFVIPLDEDEVPPGVAKPLFRSTQSLPTVDTSAQAAPQTYAEYAISQPLEGAGATCPTGSEPLAGETPNQALKPGAKSNSIIVSPRQRGNPVLKFVRNVPWEFGDVIPDYVLGQSTCALFLSLRYHNLHPDYIHGRLQSLGKNFALRVLLVQVDVKDPQQALKELAKMCILADCTLILAWSPEEAGRYLETYKAYEQKPADLLMEKLEQDFVSRVTECLTTVKSVNKTDSQTLLTTFGSLEQLIAASREDLALCPGLGPQKVRALGKNPRSWGKERAPNKHNLRPQSFKVKKEPKTRHSGFRL
partner: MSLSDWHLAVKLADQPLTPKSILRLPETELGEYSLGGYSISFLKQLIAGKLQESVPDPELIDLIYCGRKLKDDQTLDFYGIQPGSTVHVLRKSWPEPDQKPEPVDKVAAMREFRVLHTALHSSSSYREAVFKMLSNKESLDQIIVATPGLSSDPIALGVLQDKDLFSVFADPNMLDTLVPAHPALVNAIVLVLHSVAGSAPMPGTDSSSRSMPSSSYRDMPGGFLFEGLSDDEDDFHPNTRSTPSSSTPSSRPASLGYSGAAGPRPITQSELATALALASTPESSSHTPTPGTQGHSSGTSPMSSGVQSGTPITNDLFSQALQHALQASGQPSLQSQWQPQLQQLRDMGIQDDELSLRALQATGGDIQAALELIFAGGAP
B4: Emerin (Homo sapiens), P50402 (parent)
chain: MDNYADLSDTELTTLLRRYNIPHGPVVGSTRRLYEKKIFEYETQRRRLSPPSSSAASSYSFSDLNSTRGDADMYDLPKKEDALLYQSKGYNDDYYEESYFTTRTYGEPESAGPSRAVRQSVTSFPDADAFHHQVHDDDLLSSSEEECKDRERPMYGRDSAYQSITHYRPVSASRSSLDLSYYPTSSSTSFMSSSSSSSSWLTRRAIRPENRAPGAGLGQDRQVPLWGQLLLFLVFVIVLFFIYHFMQAEEGNPF

Variants of: B1
Settings: with fhl3_human FHL3, Q13643

| effect of a mutation on the interaction | Variant |
| --- | --- |
| with no effect | G63S |

Variants of: B2
Settings: with gmcl1_human GMCL1, Q96IK5

| effect of a mutation on the interaction | Variant |
| --- | --- |
| with no effect | P151L |
| with no effect | L626P |
| with no effect | C266R |
| with no effect | K370E |

Variants of: B3
Settings: with ubl7_human UBL7, Q96S82

| effect of a mutation on the interaction | Variant |
| --- | --- |
| with no effect | F231L |

Variants of: B4
Settings: with vapb_human VAPB

| effect of a mutation on the interaction | Variant |
| --- | --- |
| with no effect | S54F |

Variants of: B4
Settings: with tri42_human TRIM42, Q8IWZ5
Sequence of tri42_human TRIM42, Q8IWZ5 (Q8IWZ5 whole entry): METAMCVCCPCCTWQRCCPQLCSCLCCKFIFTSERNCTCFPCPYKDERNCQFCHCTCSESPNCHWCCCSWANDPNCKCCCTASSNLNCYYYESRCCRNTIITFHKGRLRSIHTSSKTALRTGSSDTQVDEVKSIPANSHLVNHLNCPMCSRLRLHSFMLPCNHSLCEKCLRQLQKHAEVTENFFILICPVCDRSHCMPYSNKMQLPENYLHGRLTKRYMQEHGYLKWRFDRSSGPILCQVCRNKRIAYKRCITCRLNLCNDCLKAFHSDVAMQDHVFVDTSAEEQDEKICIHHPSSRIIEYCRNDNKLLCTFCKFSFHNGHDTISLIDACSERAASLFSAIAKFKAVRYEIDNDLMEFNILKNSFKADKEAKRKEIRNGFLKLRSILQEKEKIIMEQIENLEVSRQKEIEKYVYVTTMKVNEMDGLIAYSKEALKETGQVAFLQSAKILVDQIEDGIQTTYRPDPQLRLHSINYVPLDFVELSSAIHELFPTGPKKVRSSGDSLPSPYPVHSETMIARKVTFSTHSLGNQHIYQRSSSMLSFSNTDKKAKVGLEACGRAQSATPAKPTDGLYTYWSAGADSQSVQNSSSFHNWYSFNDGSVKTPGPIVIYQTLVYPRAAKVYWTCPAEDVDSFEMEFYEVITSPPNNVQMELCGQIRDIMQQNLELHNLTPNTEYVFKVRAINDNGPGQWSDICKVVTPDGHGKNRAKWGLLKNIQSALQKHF

| effect of a mutation on the interaction | Variant |
| --- | --- |
| with no effect | S54F |

Variants of: B4
Settings: with stx4_human STX4, Q12846
Sequence of stx4_human STX4, Q12846 (Q12846 whole entry): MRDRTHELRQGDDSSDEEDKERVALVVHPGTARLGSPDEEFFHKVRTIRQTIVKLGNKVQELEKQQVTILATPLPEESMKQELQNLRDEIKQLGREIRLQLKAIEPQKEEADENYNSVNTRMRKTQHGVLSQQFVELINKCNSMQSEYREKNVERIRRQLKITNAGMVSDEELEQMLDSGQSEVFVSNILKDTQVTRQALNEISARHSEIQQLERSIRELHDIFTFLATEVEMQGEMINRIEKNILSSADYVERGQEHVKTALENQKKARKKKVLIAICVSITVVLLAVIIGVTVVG

| effect of a mutation on the interaction | Variant |
| --- | --- |
| with no effect | S54F |

Variants of: B4
Settings: with meox2_human MEOX2, P50222
Sequence of meox2_human MEOX2, P50222 (P50222 whole entry): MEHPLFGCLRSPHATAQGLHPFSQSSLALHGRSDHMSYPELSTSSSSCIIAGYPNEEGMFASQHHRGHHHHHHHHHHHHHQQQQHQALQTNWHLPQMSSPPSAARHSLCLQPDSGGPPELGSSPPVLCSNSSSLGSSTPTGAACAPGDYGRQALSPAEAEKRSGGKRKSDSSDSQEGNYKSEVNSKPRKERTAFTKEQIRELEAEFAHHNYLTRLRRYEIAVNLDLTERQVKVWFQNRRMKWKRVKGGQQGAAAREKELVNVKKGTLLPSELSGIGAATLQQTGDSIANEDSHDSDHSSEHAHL

| effect of a mutation on the interaction | Variant |
| --- | --- |
| with no effect | S54F |

Variants of: B4
Settings: with ccd33_human CCDC33, Q8N5R6
Sequence of ccd33_human CCDC33, Q8N5R6 (Q8N5R6 whole entry): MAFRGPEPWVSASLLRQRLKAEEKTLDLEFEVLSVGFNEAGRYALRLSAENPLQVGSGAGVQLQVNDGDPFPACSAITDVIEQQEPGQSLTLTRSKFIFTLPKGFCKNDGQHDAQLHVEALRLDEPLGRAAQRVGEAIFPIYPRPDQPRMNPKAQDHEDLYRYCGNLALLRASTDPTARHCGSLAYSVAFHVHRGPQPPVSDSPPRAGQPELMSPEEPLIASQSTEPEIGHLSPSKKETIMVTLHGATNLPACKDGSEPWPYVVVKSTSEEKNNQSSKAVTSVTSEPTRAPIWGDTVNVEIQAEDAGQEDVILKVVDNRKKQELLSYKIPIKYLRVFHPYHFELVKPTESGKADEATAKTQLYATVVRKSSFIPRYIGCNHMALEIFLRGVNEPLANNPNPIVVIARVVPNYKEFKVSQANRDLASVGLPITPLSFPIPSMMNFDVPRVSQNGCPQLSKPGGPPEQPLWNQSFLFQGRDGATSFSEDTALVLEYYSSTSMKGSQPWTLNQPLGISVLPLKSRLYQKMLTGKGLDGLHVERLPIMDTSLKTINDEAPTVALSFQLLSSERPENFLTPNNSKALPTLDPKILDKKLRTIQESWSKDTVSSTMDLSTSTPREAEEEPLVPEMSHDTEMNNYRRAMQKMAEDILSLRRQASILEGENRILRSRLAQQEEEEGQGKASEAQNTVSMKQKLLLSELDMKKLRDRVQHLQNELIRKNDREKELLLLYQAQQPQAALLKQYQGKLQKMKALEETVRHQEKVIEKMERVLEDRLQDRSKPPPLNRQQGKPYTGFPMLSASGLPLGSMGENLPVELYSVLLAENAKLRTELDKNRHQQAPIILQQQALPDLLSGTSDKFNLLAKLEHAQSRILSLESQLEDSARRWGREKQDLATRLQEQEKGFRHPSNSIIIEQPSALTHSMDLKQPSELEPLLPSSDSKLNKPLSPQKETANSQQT

| effect of a mutation on the interaction | Variant |
| --- | --- |
| with no effect | S54F |
